# According to the supplement of paper PMC6757056:
# ± gives the standard deviation of the averaged measurements.
# B1: library; a variant is named by its letters at N, in order (parent)
# chain: GCUGUCACCGAGAAACUGUGAAGUAUAUCUUAAACCUGGGCACUUAAAAGAUAUAUGGAGUUAGUAGUGCAACCUGCUCGGUCUGAUGAGUCCNNNNNNGGACGAAACAGC
# Assays:
# cyclic di-GMP [1] = variants of: B1; test: normalized RNA/DNA level without ligand (relative to sTRSVctl = 100) (log10 (% of sTRSVctl)); HEK293T; ligand: cyclic di-GMP (c-di-GMP-II aptamer); higher = less ribozyme self-cleavage, higher mRNA level; conditions: reporter: mCherry (pCS4076), ligand present: no
# Summary of the method: (§1)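 HEK293T cells were transfected with library plasmids carrying ribozyme switches linked to an mCherry reporter, or an eGFP reporter in some ligand experiments, at 4 µg per well of a 6-well plate, with any ligand added 1 h beforehand. After 72 h, total RNA was extracted with EDTA, reverse-transcribed, amplified, barcoded and sequenced. RNA level was defined as RNA reads over DNA reads, normalized to a spiked-in non-cleaving sequence or to the top-ranked sequences. That value was multiplied by 100 and converted to log10, the top set was 25 sequences, and only sequences with ≥100 DNA reads were retained.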
# cyclic di-GMP [2] = variants of: B1; test: normalized RNA/DNA level with ligand (relative to sTRSVctl = 100) (log10 (% of sTRSVctl)); HEK293T; ligand: cyclic di-GMP (c-di-GMP-II aptamer); ligand concentration (+) RNA-Seq: 1 mM; higher = less ribozyme self-cleavage, higher mRNA level; conditions: reporter: mCherry (pCS4076), ligand present: yes
# Summary of the method: as §1
Variant,normalized RNA/DNA level without ligand (log10) (cyclic di-GMP [1]),normalized RNA/DNA level with ligand (log10) (cyclic di-GMP [2])
CGCAAG,1.77 ± 0.024,1.86 ± 0.088
UGGAAG,1.68 ± 0.026,1.81 ± 0.17
UGGAAA,1.626 ± 0.0078,1.83 ± 0.059
AGCACA,1.58 ± 0.029,1.72 ± 0.12
CGCACG,1.75 ± 0.038,1.85 ± 0.08
CGCACA,1.41 ± 0.091,1.59 ± 0.11
CGCACU,1.48 ± 0.12,1.71 ± 0.058
CGCACC,1.7 ± 0.031,1.83 ± 0.12
UGCUAG,1.71 ± 0.031,1.9 ± 0.048
UGCUAA,1.695 ± 0.0079,1.87 ± 0.09
UGCUAU,1.676 ± 0.0088,1.83 ± 0.13
UGCUAC,1.7 ± 0.033,1.85 ± 0.069
GGCCUG,1.82 ± 0.026,1.87 ± 0.19
GGCCUC,1.742 ± 0.015,1.83 ± 0.11
GGCCUA,1.61 ± 0.12,1.83 ± 0.13
GGCCUU,1.791 ± 0.013,1.9 ± 0.059
AGCCUG,1.6624 ± 0.00017,1.81 ± 0.15
AGCCUC,1.77 ± 0.073,1.87 ± 0.13
UGCGCC,1.79 ± 0.046,1.92 ± 0.094
UGCGCG,1.821 ± 0.0063,1.92 ± 0.085
UGCGCA,1.711 ± 0.014,1.86 ± 0.061
UGCGCU,1.72 ± 0.032,1.89 ± 0.11
GGGAGC,1.625 ± 0.0022,1.76 ± 0.1

Variant,normalized RNA/DNA level without ligand (log10) (cyclic di-GMP [1]),normalized RNA/DNA level with ligand (log10) (cyclic di-GMP [2])
GGGAGU,1.67 ± 0.071,1.72 ± 0.16
CGCAGU,1.679 ± 0.005,1.82 ± 0.092
CGCAGA,1.45 ± 0.08,1.68 ± 0.078
CGCAGG,1.61 ± 0.034,1.84 ± 0.03
CGCAGC,1.75 ± 0.027,1.87 ± 0.074
UGCUCA,1.762 ± 0.015,1.85 ± 0.09
UGCUCC,1.858 ± 0.016,1.93 ± 0.17
UGCUCG,1.77 ± 0.059,1.89 ± 0.16
UGCUCU,1.77 ± 0.018,1.92 ± 0.05
AGGAAC,1.54 ± 0.12,1.68 ± 0.12
CGCUCG,1.77 ± 0.077,1.88 ± 0.16
CGCUCC,1.77 ± 0.035,1.89 ± 0.084
CGCUCA,1.47 ± 0.05,1.68 ± 0.15
AGCUCC,1.81 ± 0.019,1.88 ± 0.089
AGCUCU,1.76 ± 0.096,1.88 ± 0.17
AGCUCA,1.69 ± 0.013,1.81 ± 0.12
GGCUGA,1.54 ± 0.052,1.71 ± 0.14
GGCUGU,1.68 ± 0.05,1.79 ± 0.18
GGCUGC,1.7019 ± 0.0016,1.83 ± 0.11
GGCUGG,1.746 ± 0.013,1.82 ± 0.092
GGCAAC,1.72 ± 0.05,1.82 ± 0.1
GGCAAU,1.65 ± 0.1,1.75 ± 0.13
GGCAAG,1.55 ± 0.019,1.74 ± 0.15

Variant,normalized RNA/DNA level without ligand (log10) (cyclic di-GMP [1]),normalized RNA/DNA level with ligand (log10) (cyclic di-GMP [2])
UGCCGU,1.66 ± 0.013,1.83 ± 0.12
UGCCGA,1.626 ± 0.012,1.79 ± 0.12
UGCCGG,1.75 ± 0.04,1.86 ± 0.039
UGCCGC,1.774 ± 0.015,1.9 ± 0.049
GGGAAG,1.63 ± 0.069,1.7145 ± 0.00089
GGGAAC,1.68 ± 0.031,1.84 ± 0.057
GGGAAA,1.46 ± 0.14,1.544 ± 0.007
GGGAAU,1.6 ± 0.095,1.79 ± 0.14
GGCGAA,1.558 ± 0.0061,1.77 ± 0.2
GGCGAC,1.76 ± 0.093,1.88 ± 0.16
GGCGAU,1.586 ± 0.014,1.72 ± 0.11
CGGAAC,1.45 ± 0.077,1.62 ± 0.14
CGGAAG,1.745 ± 0.015,1.86 ± 0.1
CGCCCG,1.756 ± 0.0093,1.87 ± 0.14
CGCCCC,1.818 ± 0.0078,1.9 ± 0.1
CGCCCU,1.777 ± 0.0073,1.87 ± 0.077
CGCCCA,1.84 ± 0.069,1.91 ± 0.11
CGCAUU,1.47 ± 0.073,1.61 ± 0.11
CGCAUC,1.66 ± 0.037,1.83 ± 0.11
CGGAUC,1.63 ± 0.036,1.72 ± 0.15
UGCCCU,1.79 ± 0.021,1.89 ± 0.057
UGCCCC,1.857 ± 0.013,1.93 ± 0.092
UGCCCA,1.88 ± 0.032,1.96 ± 0.096

Variant,normalized RNA/DNA level without ligand (log10) (cyclic di-GMP [1]),normalized RNA/DNA level with ligand (log10) (cyclic di-GMP [2])
GGCGUG,1.75 ± 0.017,1.86 ± 0.15
GGCGUC,1.68 ± 0.077,1.79 ± 0.17
GGCGUA,1.6 ± 0.017,1.74 ± 0.13
AGCUUC,1.77 ± 0.026,1.9 ± 0.059
AGCUUA,1.57 ± 0.055,1.76 ± 0.11
AGCUUU,1.712 ± 0.0062,1.85 ± 0.12
AGCCGC,1.75 ± 0.033,1.89 ± 0.13
AGCCGA,1.748 ± 0.014,1.84 ± 0.14
AGCCGG,1.765 ± 0.013,1.865 ± 0.018
AGCCGU,1.58 ± 0.048,1.77 ± 0.064
CGCGUG,1.62 ± 0.034,1.79 ± 0.12
CGCGUC,1.77 ± 0.062,1.88 ± 0.15
CGCGUU,1.67 ± 0.021,1.86 ± 0.12
UGCUGG,1.696 ± 0.014,1.87 ± 0.15
UGCUGC,1.76 ± 0.025,1.92 ± 0.1
UGCUGA,1.6 ± 0.017,1.8 ± 0.085
UGCUGU,1.748 ± 0.01,1.87 ± 0.1
AGCGUU,1.678 ± 0.0089,1.82 ± 0.16
AGCGUA,1.55 ± 0.087,1.71 ± 0.1
UGCGGG,1.81 ± 0.045,1.92 ± 0.067
UGCGGA,1.559 ± 0.0066,1.78 ± 0.12
UGCGGU,1.63 ± 0.035,1.8 ± 0.12
UGCGGC,1.757 ± 0.0021,1.9 ± 0.12

Variant,normalized RNA/DNA level without ligand (log10) (cyclic di-GMP [1]),normalized RNA/DNA level with ligand (log10) (cyclic di-GMP [2])
AGCUGU,1.667 ± 0.01,1.8 ± 0.073
AGCUGA,1.58 ± 0.16,1.72 ± 0.067
AGCUGG,1.64 ± 0.043,1.81 ± 0.12
UGCGAC,1.685 ± 0.016,1.82 ± 0.08
UGCGAU,1.605 ± 0.0035,1.8 ± 0.091
UGCGAA,1.69 ± 0.054,1.784 ± 0.013
CGCGCG,1.83 ± 0.025,1.92 ± 0.038
CGCGCU,1.702 ± 0.016,1.83 ± 0.11
CGCGCC,1.75 ± 0.025,1.88 ± 0.14
CGCGCA,1.65 ± 0.046,1.75 ± 0.13
UGGAUC,1.699 ± 0.0067,1.88 ± 0.097
UGGAUA,1.65 ± 0.043,1.8 ± 0.11
UGCAUU,1.713 ± 0.0057,1.84 ± 0.056
UGCAUA,1.7 ± 0.027,1.84 ± 0.084
AGCAUU,1.66 ± 0.0074,1.84 ± 0.073
AGCAUC,1.8 ± 0.021,1.88 ± 0.12
AGCAUA,1.52 ± 0.083,1.73 ± 0.074
CGGAGA,1.32 ± 0.11,1.55 ± 0.13
CGGAGG,1.623 ± 0.014,1.82 ± 0.12
CGGAGU,1.63 ± 0.03,1.8 ± 0.1
AGCUAU,1.7 ± 0.05,1.84 ± 0.12
AGCUAC,1.709 ± 0.017,1.81 ± 0.14
AGCUAG,1.54 ± 0.026,1.72 ± 0.16
